Data as given in the DeepSol protein solubility set.

Assay: soluble on expression in E. coli; label from the status in PepcDB or PDB records

Sequence | soluble on expression in E. coli
MSLKKIMEYLQHYINQYPHRLALVFEDRHLTYGELSKEIYQASMRYKEVKLNEKVGLMDDHPVNNIINYFAVHQRGGIPCIFNHQWSNERIHQLVKSYDIQWLIKDNHLTLNHDDSIYNDEVIPRNVIHIGFTSGTTGLPKAFYRNEHSWIVSFKENEKLLQHCEETIVAPGPLSHSLSLYACIYALSTGKTFIGQKNFNPLSLMRLINQLNKATAIFVVPTMVQQLISTQRHCSSIKSILSSGAKLTLQQFQQISTLYPQANLIEFFGTSEASFISYNFNQSSPAHSVGKLFPHVETRLLNQDDDAVGLLAVRSEMVFSGYVGQSNQEGSWIKTGDFAYIKNQHLFLVGRESDRIIVGGINVYPTAIESLIMDIEGIDEALVIGIPHAKFGEIAILLYSGKVQLNYRQIKSFLMKQLSRQEVPSKLKKIDHMIYTESGKIARKEMKNKFINGEGHHHHHH | not soluble
MAIPAFHPGELNVYSAPGDVADVSRALRLTGRRVMLVPTMGALHEGHLALVRAAKRVPGSVVVVSIFVNPMQFGAGGDLDAYPRTPDDDLAQLRAEGVEIAFTPTTAAMYPDGLRTTVQPGPLAAELEGGPRPTHFAGVLTVVLKLLQIVRPDRVFFGEKDYQQLVLIRQLVADFNLDVAVVGVPTVREADGLAMSSRNRYLDPAQRAAAVALSAALTAAAHAATAGAQAALDAARAVLDAAPGVAVDYLELRDIGLGPMPLNGSGRLLVAARLGTTRLLDNIAIEIGTFAGTDRPDGYRA | soluble
MKDLLTRRFVLNSKEVREGDVFVAVKGKRFDGHDFIDEALRNGAYAIIAERKTVNSDRIFLVESSVDTLAKLAREKLGNFSGTVVGVTGSSGKTTTKEILYNLLKNKRSVFKTPGNMNTEYGLPLSILNDYKGEEILVLEMAASRPGDIAHLCKIAPPDVAVLLNVGSAHLEFFGTRERIMETKMEIIKHSKENAIAVTLFDDPDLRKEVPRYRNTLFFGKEGGDSVLKDWWYYEGSTIAEFEAFDSLFTVKLSGYWNGGQLLNIAASLCVMRTLGETVDIFDLASLKTVPGRFNVREKKGVLIVDDTYNASPEAFQTSIEALLRFPGKKFAVVGAMKELGERSKEFHEELGERLNVLDGVYVFLSEPEAEWIKSKKIILKSDDPEKIAKDLATRVKKGDVVLFKASRAVRIERVLEMFEKELEKR | soluble
FEDVVGQEHITKTLQNALLQKKFSHAYLFSGPRGTGKTSAAKIFAKAVNCEHAPVDEPCNECAACKGITNGSISDVIEIDAASNNGVDEIRDIRDKVKFAPSAVTYKVYIIDEVHMLSIGAFNALLKTLEEPPEHCIFILATTEPHKIPLTIISRCQRFDFKRITSQAIVGRMNKIVDAEQLQVEEGSLEIIASAADGGMRDALSLLDQAISFSGDILKVEDALLITGAVSQLYIGKLAKSLHDKNVSDALETLNELLQQGKDPAKLIEDMIFYFRDMLLYKTAPGLEGVLEKVKVDETFRELSEQIPAQALYEMIDILNKSHQEMKWTNHPRIFFEVAVVKICQTSHQSAADLPEVDMLMKKIQQLEQEVERLKTTGIKAAAESPKKEAPRVPKGGKSNYKAPVGRIHEILKEATRPDLDLLRNSWGKLLAHLKQQNKVSHAALLNDSEPVAAGSAAFVLKFKYEIHCKMVAEDNNGVRTNLEQILESMLGKRMDLIGVPEAQWGKIREEFLEDHQQANEGSNEPAEEDPLIAEAKKLVGADLIEIKD | not soluble
MIKISYSPYTLKPVQSLNAATAATAREGVLLKVEWNDGLYGFADLHPWPELGDLSLEEQLSDLRMGRMTTQIEQSIWLARRDALLRKEKKHVFDGGEKIKNNYLLSHFQDLKPGFLDGLKNEGYNTVKVKMGRDLQKEADMLTHIAASGMRMRLDFNALGSWQTFEKFMVNLPLTVRPLIEYVEDPFPFDFHAWGEARKLAKIALDNQYDKVPWGKIASAPFDVIVIKPAKTDVDKAVAQCQKWNLKLAVTSYMDHPVGVVHAVGVAMELKDKYGDMILESGCLTHRLYQMDSFAAELSTQGPYLLKNKGTGVGFDKLLEALTWYQLKVR | soluble
MSLRSHFATQKDQWQTYTKEKKIKIGFDATFVPMGYEEKDGSYIGFDIDLANAVFKLYGIDVEWQAIDWDMKETELKNGTIDLIWNGYSVTDERKQSADFTEPYMVNEQVLVTKKSSGIDSVAGMAGKTLGAQAGSSGYDAFNASPKILKDVVANQKVVQYSTFTQALIDLNSGRIDGLLIDRVYANYYLEKSGVLDQYNVMPAGYEGESFAVGARKVDKTLIKKINQGFETLYKNGEFQKISNKWFGEDVATDQVKGKREGHHHHHH | soluble
MPISEPTWAELPFLFKSAVVELLPYKNRCCLRKCSKSDQFLVDSTPNHLHDVAIHTCENYTVFTYSDSPDTVFTLKYFKNIGENDLKIEYSESPVLFVPGKNQKFIFKTSIHVENLASEADDVDFALDDFKLLLNRLNCKKSIINMIPNQYNPIAHPDRTIEFRQRLLDLMTSSFPKKSIKSKSLVIHWHQETQEIAEILQVFHTKTLKNLEFHDRNATWHMAPIIGTEQWKGARSVLLEHLSDVKIEELKDFNEIQMHVRDSGEQELWTVIQNFIRKNLHGSSFHFTYRQAEPNVDRILATFNVPPRDEPITARTRLRSVLGSRFIHTQRFQMPSTDLILVVMISEKEVMGTVCHVDQVNVEAKVERGLLR | not soluble
MDTAGIRLTPKEIVSKLNEYIVGQNDAKRKVAIALRNRYRRSLLDEESKQEISPKNILMIGPTGVGKTEIARRMAKVVGAPFIKVEATKFTEVGYVGRDVESMVRDLVDVSVRLVKAQKKSLVQDEATAKANEKLVKLLVPSMKKKASQTNNPLESLFGGAIPNFGQNNEDEEEPPTEEIKTKRSEIKRQLEEGKLEKEKVRIKVEQDPGALGMLGTNQNQQMQEMMNQLMPKKKVEREVAVETARKILADSYADELIDQESANQEALELAEQMGIIFIDEIDKVATNNHNSGQDVSRQGVQRDILPILEGSVIQTKYGTVNTEHMLFIGAGAFHVSKPSDLIPELQGRFPIRVELDSLSVEDFVRILTEPKLSLIKQYEALLQTEEVTVNFTDEAITRLAEIAYQVNQDTDNIGARRLHTILEKMLEDLSFEAPSMPNAVVDITPQYVDDKLKSISTNKDLSAFIL | not soluble
MSQRKYFGTDGVRGEVGGPVINAAFALRLGYAAGRVLAREHREHASGRGRNRPQVVIGKDTRISGYMLESALEAGLSAAGIDVLLAGPVPTPAVAYLTRTLRLAAGIVISASHNPYQDNGIKFFSAHGMKLPDDIEAAIEQALDEPLGCVGSEELGRARRMADAQGRYIEFCKSTFPHDLDLNGLKLVVDAAHGAAYNVAPHVFRELGAEVHAIGVSPDGFNINKGVGALHPESLAEEVRARGADLGIALDGDADRLQMVDGTGRIYNGDELLYAIVRERMQRGPVAGVVGTLMTNYGLERQLQQIGVGFERANVGDRYVLEQMQARGWLYGGESSGHLLCLDCHTTGDGTIAALQVLTALRRADATLAEWVADLRMYPQKMINVPLAPGLDWKTHDGLARARGAVEAELAGRGRVLIRASGTEPKLRLMVEAEDEALAQASAQKLADSLGA | not soluble
MGSDKIHHHHHHMATSIETSFPDAPSTTPVLEMQGITKRFHGVSALQNVNLTIYPGEVHALMGENGAGKSTLMKILAGAYIADEGEIRINGQPLKITDPATARKAGINLIYQELNVAPNLTVTENMFMGSELRRGQFLDRKAMQLEAEQVLDSLGANFTAQTIVGTLSIAEQQQVEIARALKDKSRVLVMDEPTAALSDRESDHLFEVIRKLRSDGIAIIYISHRMEEIYALADRISVLRDGQYIGSLTRSEISPQRLVQMMVGRSMQDFYEHQRQMNPGPVVLEVRNMSDARKKIEPASFELHAGEILGLAGLVGAGRTELSRLIFGADRKASGEVFLNGKKLEINTPSDAIAAGIGYVPEDRKDQGLFLEMSARKNIAINTLKQDAKGGIVNWPSVNRLSTEAVENFNIRLANLEIRALDLSGGNQQKLLLARWLAIKPRVLMLDEPTRGVDIGAKSEIYRIMSELAAQGVAILMVSSELSEIVGMSDRVLVMREGQLVGELDGSLGKEITQEKIMHYATGASEVSAL | not soluble
GCSDGGREALVAAQRYPDDFNGIIAGAPALNFQVQKTLYHGWMARSNIGPDGKPILLASRLPLLHKAVLAKCDVLDGQIDGLIADPRLCNFDPASVQCTSSVDTTNCLTQQEVAVVKRFYEGPKDPDSGERLTVGGPQPGSELGWAGVFVPITAEQTVYSEKAASEAIRNMVFENNPVAGFDLSTLRFDKSTFDKLRPLHPLYDATNPDLAPFASRGGKLILWHGWADPNVSPLNTLAYHEAVEAKLGKARTEAFESLYMLPGVYHCGAGEGPSVIDLLTPMMAWVESNHAPD | not soluble
GSNSQVWSALQMSKALQDSAPDRPSPVERIVSRDIARGYERIPIPCVNAVDSEPCPSNYKYVSQNCVTSPMNIDRNITHLQYCVCIDDCSSSNCMCGQLSMRCWYDKDGRLLPEFNMAEPPLIFECNHACSCWRNCRNRVVQNGLRARLQLYRTRDMGWGVRSLQDIPPGTFVCEYVGELISDSEADVREEDSYLFDLDNKDGEVYCIDARFYGNVSRFINHHCEPNLVPVRVFMAHQDLRFPRIAFFSTRLIEAGEQLGFDYGERFWDIKGKLFSCRCGSPKCRHS | soluble
MAKKTSSKGKLPPGPTPLPIIGNMLQIDVKDICKSFTNFSKVYGPVFTVYFGMNPIVVFHGYEAVKEALIDNGEEFSGRGNSPISQRITKGLGIISSNGKRWKEIRRFSLTTLRNFGMGKRSIEDRVQEEAHCLVEELRKTKASPCDPTFILGCAPCNVICSVVFQKRFDYKDQNFLTLMKRFNENFRILNSPWIQVCNNFPLLIDCFPGTHNKVLKNVALTRSYIREKVKEHQASLDVNNPRDFIDCFLIKMEQEKDNQKSEFNIENLVGTVADLFVAGTETTSTTLRYGLLLLLKHPEVTAKVQEEIDHVIGRHRSPCMQDRSHMPYTDAVVHEIQRYSDLVPTGVPHAVTTDTKFRNYLIPKGTTIMALLTSVLHDDKEFPNPNIFDPGHFLDKNGNFKKSDYFMPFSAGKRICAGEGLARMELFLFLTTILQNFNLKSVDDLKNLNTTAVTKGIVSLPPSYQICFIPVHHHH | soluble
MVLADGELTVLGRIRSASNATFLCESTLGLRSLHCVYKPVSGERPLWDFPDGTLAGRELSAYLVSTQLGWNLVPHTIIRDGPAGIGMLQLWVQQPGDAVDSDPLPGPDLVDLFPAHRPRPGYLPVLRAYDYAGDEVVLMHADDIRLRRMAVFDVLINNADRKGGHILCGIDGQVYGVDHGLCLHVENKLRTVLWGWAGKPIDDQILQAVAGLADALGGPLAEALAGRIAAAEIGALRRRAQSLLDQPVMPGPNGHRPIPWPAFLEHHHHHH | not soluble
MPVQPPSKDTEEMEAEGDSAAEMNGEEEESEEERSGSQTESEEESSEMDDEDYERRRSECVSEMLDLEKQFSELKEKLFRERLSQLRLRLEEVGAERAPEYTEPLGGLQRSLKIRIQVAGIYKGFCLDVIRNKYECELQGAKQHLESEKLLLYDTLQGELQERIQRLEEDRQSLDLSSEWWDDKLHARGSSRSWDSLPPSKRKKAPLVSGPYIVYMLQEIDILEDWTAIKKARAAVSPQKRKSDGP | soluble
MKAYWIAHVDVTDPQQYSEYTQRAPAAFQLFGGKFLARGGRSEAIEGRATPQRTVIIEFESYEQAVACYHSPQYQNAMSHRQGAAKAEIVIVEGQP | not soluble
MIQRLLNEENLLIGISELSEIAEVSPRQLRYWEEKGYISSIAKDANGPRKYRLHTVVKVHWIKRFLDEGYTLQSAVEKAEEQHRNVGMTKKIFSQMFHGISEVCPNYVAIDLGDFDEEQKLYVVFNETTEVSEYLLIPKDADVSDELKKRK | not soluble
MSLKRSIHVQAFVYNEKKDEILIVRNRNLAWTFPGGHVETDQTMEEALASKVKEQTNIDIEIESILHCKERRATWEHVCTFVFRAKPVGEMATFSNDDNVFRVKWIPIPLADDLLPIDQLSLNELVRSEGVLYENEGHHHHHH | soluble
